Where no end group is shown, it is not given here. The star is where a group is joined. Dansyl = CN(C)c1cccc2c(S(=O)(=O)*)cccc12
What was measured:
[1] = target: Caco-2 cell membrane (P100) fractions; experiment: ELISA on coated Caco-2 P100 fraction, anti-dansyl detection; assay 5, peptide at 25 µg/ml
[2] = target: Caco-2 cell membrane (P100) fractions; experiment: ELISA on coated Caco-2 P100 fraction, anti-dansyl detection; assay 1, peptide at 20 µg/ml
[3] = target: Caco-2 cell membrane (P100) fractions; experiment: ELISA on coated Caco-2 P100 fraction, anti-dansyl detection; assay 6, peptide at 25 µg/ml
[4] = target: Caco-2 cell membrane (P100) fractions; experiment: ELISA on coated Caco-2 P100 fraction, anti-dansyl detection; assay 3, peptide at 50 µg/ml
[5] = target: Caco-2 cell membrane (P100) fractions; experiment: ELISA on coated Caco-2 P100 fraction, anti-dansyl detection; assay 8, peptide at 25 µg/ml
[6] = target: Caco-2 cell membrane (P100) fractions; experiment: ELISA on coated Caco-2 P100 fraction, anti-dansyl detection; assay 2, peptide at 50 µg/ml
[7] = target: Caco-2 cell membrane (P100) fractions; experiment: ELISA on coated Caco-2 P100 fraction, anti-dansyl detection; assay 4, peptide at 25 µg/ml
[8] = target: Caco-2 cell membrane (P100) fractions; experiment: ELISA on coated Caco-2 P100 fraction, anti-dansyl detection; assay 7, peptide at 25 µg/ml

| Binder | binding to P100 relative to ZElan021 (arbitrary value 1.00) [1] | binding to P100 relative to ZElan021 (arbitrary value 1.00) [2] | binding to P100 relative to ZElan021 (arbitrary value 1.00) [3] | binding to P100 relative to ZElan021 (arbitrary value 1.00) [4] | binding to P100 relative to ZElan021 (arbitrary value 1.00) [5] | binding to P100 relative to ZElan021 (arbitrary value 1.00) [6] | binding to P100 relative to ZElan021 (arbitrary value 1.00) [7] | binding to P100 relative to ZElan021 (arbitrary value 1.00) [8] |
| --- | --- | --- | --- | --- | --- | --- | --- | --- |
| K(Dansyl)SDHALGTNLRSDNAKEPGDYNCCGNGNSTGRKVFNRRRPSAIPT (cysteine pairing not given here) [ZElan021, full length HAX42] | 1 | 1 | 1 | 1 | 0.94 | 1 | 1 | 1.14 |
| K(Dansyl)PGDYNCCGNGNSTG (cysteine pairing not given here) [ZElan091, HAX42 14 mer fragment] | 1.37 |  | 1.2 |  |  |  | 2.02 | 0.85 |

Source: patent US20090238886A1
